For experiment [1], the target named is T1, CD3 epsilon on human T-cells (human, UniProt P07766 23-207).
T1 construct: part of the TCR-CD3 complex on T cells; also called CD3 on T cells
Put plainly: T cell binding.

For experiment [2], the target named is T2, recombinant CD3 (UniProt P07766 23-126).
T2 construct: also called CD3 (SPR)
Put plainly: SPR. A general note: Surface plasmon resonance follows binding to a sensor surface in real time, without labels.

In the next experiment the target is huDesmin, recombinant (human, UniProt P17661 1-470, limits assumed). Kind of experiment: SPR.
Chain of huDesmin, recombinant (P17661 whole entry): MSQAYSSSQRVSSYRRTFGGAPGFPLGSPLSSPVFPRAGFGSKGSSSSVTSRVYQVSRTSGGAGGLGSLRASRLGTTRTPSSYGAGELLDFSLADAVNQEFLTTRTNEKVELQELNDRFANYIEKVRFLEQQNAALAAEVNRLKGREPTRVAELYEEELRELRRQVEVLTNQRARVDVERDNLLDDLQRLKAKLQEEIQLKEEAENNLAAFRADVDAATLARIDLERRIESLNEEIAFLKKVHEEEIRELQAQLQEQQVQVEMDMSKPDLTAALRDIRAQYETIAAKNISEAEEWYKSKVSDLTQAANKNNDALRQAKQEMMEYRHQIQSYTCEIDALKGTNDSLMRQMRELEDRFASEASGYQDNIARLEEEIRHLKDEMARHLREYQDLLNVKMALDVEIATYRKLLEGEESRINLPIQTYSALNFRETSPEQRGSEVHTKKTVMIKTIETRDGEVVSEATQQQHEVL
Experiment [3] addresses T3, 8 AA stub (a.a. 296-303 of SEQ ID NO: 247) (human).
T3 construct: also called 8 AA Peptide; peptide of the last 8 C-terminal amino acids
T3 peptide: LSMQEALS
Kind of experiment: competition of OVCAR8 cell binding by the peptide.

The target of experiment [4] is T4, MSNW11, recombinant soluble (shed) MSLN lacking the C-terminal 7 AAs (human, UniProt Q13421 296-591).
T4 construct: domain: soluble MSLN lacking the C-terminal 7 AAs; also called MSNW11.002; soluble MSLN
T4 sequence (Q13421 other isoform, or with tags, fused parts or gaps limits assumed): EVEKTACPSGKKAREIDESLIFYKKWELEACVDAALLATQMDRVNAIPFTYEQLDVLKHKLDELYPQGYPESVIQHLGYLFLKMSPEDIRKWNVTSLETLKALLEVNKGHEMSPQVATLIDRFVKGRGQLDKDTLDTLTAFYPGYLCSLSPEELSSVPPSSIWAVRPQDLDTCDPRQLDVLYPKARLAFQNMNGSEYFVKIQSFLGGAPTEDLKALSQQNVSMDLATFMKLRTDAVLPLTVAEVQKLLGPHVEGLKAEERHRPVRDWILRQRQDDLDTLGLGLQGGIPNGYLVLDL
Put plainly: H838 cell binding with shed MSLN (MSNW11) added. An excerpt:
Table 16 lists the immunization campaigns, antigens used, and number of clones returned at each stage of screening. Clones from which antibody sequences were successfully recovered were first screened for binding to recombinant full length human MSLN (MSNW10) and H838 cells that express MSLN on the cell surface. Binders were further screened for binding to cells in the presence of recombinant soluble MSLN lacking the C-terminal 7 AAs (MSNW11). This form of recombinant MSLN represented the product of cleavage at the closest cleavage site to the C-terminus known at the time, therefore, it theoretically represented the longest form of shed MSLN. The final concentration of shed MSLN in the assays was 100 nM.

Experiment [5] addresses T5, 14 AA stub (a.a. 290-303 of SEQ ID NO: 247) (human).
T5 peptide: GYLVLDLSMQEALS
Put plainly: SPR, mAb captured, peptide injected. The procedure:
(§1) The binding was assessed by SPR. Briefly, GAH-Fc was used to capture mAbs on C4 sensor chip followed by antigen injection starting at 30 nM (14 amino acid stub), 100 nM (10-13 amino acid stubs), or 1000 nM (7-9 amino acid stubs) progressing in a 3-fold dilution series in single cycle kinetics mode. HBSP+0.01% BSA was used in the assay.

Experiment [6] has as its target T6, 11 AA stub (a.a. 293-303 of SEQ ID NO: 247) (human).
T6 peptide: VLDLSMQEALS
Kind of experiment: SPR, mAb captured, peptide injected. The procedure:
as §1

The target in experiment [7] is T7, 7 AA stub (a.a. 297-303 of SEQ ID NO: 247) (human).
T7 peptide: SMQEALS
Kind of experiment: SPR, mAb captured, peptide injected. On the procedure: as §1

Experiment [8] concerns the target T8, 10 AA stub (a.a. 294-303 of SEQ ID NO: 247) (human).
T8 peptide: LDLSMQEALS
Put plainly: SPR, mAb captured, peptide injected. The procedure: as §1

Experiment [9] deals with T9, 12 AA stub region peptide LVLDLSMQEALS (human).
T9 construct: free N-terminus; also called 12 AA Peptide
T9 peptide: LVLDLSMQEALS
Kind of experiment: SPR, mAb captured, peptide injected. On the procedure: as §1

Experiment [10] addresses T10, 13 AA stub (a.a. 291-303 of SEQ ID NO: 247) (human).
T10 peptide: YLVLDLSMQEALS
Kind of experiment: SPR, mAb captured, peptide injected. The procedure:
as §1

For experiment [11], the target named is T11, 9 AA stub (a.a. 295-303 of SEQ ID NO: 247) (human).
T11 peptide: DLSMQEALS
Kind of experiment: SPR, mAb captured, peptide injected. The procedure:
as §1

In experiment [12] the target is T12, MSNW10, recombinant full length human MSLN (human, UniProt Q13421 296-598).
T12 construct: also called MSNW10.002; FL-MSLN
T12 sequence (Q13421 other isoform, or with tags, fused parts or gaps limits assumed): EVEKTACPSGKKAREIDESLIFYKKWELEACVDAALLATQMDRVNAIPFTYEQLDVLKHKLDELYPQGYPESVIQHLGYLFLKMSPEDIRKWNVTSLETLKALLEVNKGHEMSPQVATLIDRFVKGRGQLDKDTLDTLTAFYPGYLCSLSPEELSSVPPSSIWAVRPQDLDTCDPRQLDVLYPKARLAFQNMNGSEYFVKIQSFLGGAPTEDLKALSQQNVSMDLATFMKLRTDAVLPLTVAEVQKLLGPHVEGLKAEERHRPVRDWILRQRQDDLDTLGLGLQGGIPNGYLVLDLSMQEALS
Put plainly: SPR, recombinant full-length human MSLN.

Experiment [13] deals with T13, human MSLN on the cell surface (human, UniProt Q13421 296-598).
T13 construct: on cells stands the processed GPI-anchored 40 kDa MSLN; also called membrane MSLN; MSLN on H838, OVCAR-8 (OVCAR8), OVCAR-8 K1/C8, SK-OV-3 cells
Put plainly: high content imaging, surface staining of OVCAR8 cells. On the procedure:
OVCAR8 cells were cultured in RPMI 1640 medium supplemented with 10% FCS, 1% L-glutamine and 1% Gentamycin and seeded in Greiner CELLSTAR plate one day before experiment. 24 h after seeding, antibody mixture was prepared by diluting MSLN and control antibodies in Table 21 in full media containing CellMask™ Deep Red Plasma Membrane Stain (ThermoFisher, C10046) in 12 concentrations each with 3 folds dilution starting from 20 μg/ml and 20 μl of which were added directly to the cells in 20 μl. Antibodies were allowed for binding to the cell surface for 2h inside the incubator (37°) C. and the surface bound antibodies were fixed for 15 min at RT by directly adding 30 ul of 10% Formaldehyde (04018-1, Polysciences). Afterwards residual Formaldehyde was removed by washing the cells twice with PBS and the primary antibodies were stained with secondary antibodies (Alexa Fluor 488 goat anti-human IgG, Invitrogen, A11013) complemented with Hoechst 33342 (H3570, ThermoFisher) and HCS CellMask™ Deep Red Stain (ThermoFisher, H32721) in PBS for 1h at RT. After removing unbound antibodies and other dyes by washing the cells 3 times with PBS cells were imaged on the CellVoyager 7000 (Yokogawa, Tokyo, Japan) using a 40×/0.95 objective. Of each well, 9 fields were imaged. Image analysis was performed with Acapella (PerkinElmer, Waltham, MA, USA) and the results stored in Phaedra (OpenAnalytics, Antwerp, Belgium). Data analysis was done in R (www.r-project.org).
The data was then fitted using the four-parameter logistic using least-squares regression, keeping the lower boundary fixed at 0.

For experiment [14], the target named is T3, 8 AA stub (a.a. 296-303 of SEQ ID NO: …). Put plainly: SPR, mAb captured, peptide injected. The procedure: as §1
Experiment [15] deals with T13, human MSLN on the cell surface. Put plainly: estimated from cell binding, not SPR; lower end of the range.
Experiment [16] shares this target. Put plainly: estimated from cell binding, not SPR; upper end of the range.
The target of experiment [17] is T12, MSNW10, recombinant full length human …. Kind of experiment: SPR, additional experiments.
The target in experiment [18] is T2, recombinant CD3. Put plainly: SPR; upper end of the range.
The target of experiment [19] is T2, recombinant CD3. Put plainly: SPR; lower end of the range.
The target of experiment [20] is human MSLN on the cell surface (human, UniProt Q13421 296-598). Kind of experiment: flow cytometry (MFI PE) on OVCAR-8 cells. On the technique in general: In flow cytometry, cells or beads pass a laser one at a time.

Some results are limits rather than exact numbers.

T2 sequence (P07766 23-126): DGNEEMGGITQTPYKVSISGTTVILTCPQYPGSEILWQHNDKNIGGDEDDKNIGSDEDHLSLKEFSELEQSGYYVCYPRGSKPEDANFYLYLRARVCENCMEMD
T1 sequence (P07766 23-207 limits assumed): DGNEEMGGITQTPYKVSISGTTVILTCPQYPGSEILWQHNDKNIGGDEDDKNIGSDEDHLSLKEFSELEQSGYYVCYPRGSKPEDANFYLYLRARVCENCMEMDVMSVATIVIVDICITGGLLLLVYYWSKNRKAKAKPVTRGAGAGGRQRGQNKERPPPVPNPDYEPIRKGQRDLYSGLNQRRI

B1: CD3W245-LH-ScFv (scFv)
scFv: DIQMTQSPSSLSASVGDRVTITCRARQSIGTAIHWYQQKPGKAPKLLIKYASESISGVPSRFSGSGSGTDFTLTISSLQPEDFATYYCQQSGSWPYTFGQGTKLEIKGGSEGKSSGSGSESKSTGGSEVQLVESGGGLVKPGGSLRLSCAASGFTFSRYNMNWVRQAPGKGLEWVSSISTSSNYIYYADSVKGRFTFSRDNAKNSLDLQMSGLRAEDTAIYYCTRGWGPFDYWGQGTLVTVSS
Regarding B1, the EC50 – broadly, the midpoint of the concentration-response curve – in experiment [1] lay within 20 to 50 nM. Besides, the Kd – broadly, the concentration at which binding is half-saturated – in the experiment with recombinant CD3 [2] lay within 0.5 to 1 nM.

B2: MSNB71 (antibody, V domains shown)
VH: QVQLQQSGPGLVMSSQTLSLTCAISGDSVSSSSVAWNWIRQSPSRGLQWLGRTYFRSKWYYDYAVSVKSRITINPDTSKNQFSLQLNSVTPEDTAVYYCSRGIVGALDYWGQGTLVTVSS
VL: DIVMTQSPLSLPVTPGEPASISCRSSQSLLFTNGYDSLDWYLQKPGQSPQLLIYLVSNRASGVPDRFSGSGSGTEFTLKISRVEADDVGVYFCMQGIRTPFTFGPGTKLEIK
notes: mAb from Ablexis mouse; also called MSNB71.004
Take B2: the binding result with huDesmin, recombinant is on record as “binds”; in experiment [3] it was “no binding”; in experiment [4] it was “no binding (tested: 100 nM)”; in experiment [6], “no binding (tested: 100 nM)”; in experiment [7], “no binding (tested: 1000 nM)”; in experiment [8], “no binding (tested: 100 nM)”. Also, the binding result in experiment [11] is given as “no binding (tested: 1000 nM)”. Besides, the Kd in experiment [5] turned out to be 0.364 nM; in [9] it was 0.692 nM; in [10] it was 0.469 nM; in experiment [12] it was 0.2 nM. In addition, 0.0713 µg/mL corresponded to half-maximal inhibition in experiment [13] (IC50). The “Maximum Value (arbitrary units)” value in experiment [13] was determined as 1.54e+07 arbitrary units.

B3: MSLNB568 (antibody, V domains shown)
VH: QVQLQQSGPGLVKPSQTLSLTCGISGDSVSSSSVAWNWIRQSPSRGLEWLGRTYYRSKWYNDYAISVRSRVTINPDTSKNQFSLQLNSVTPEDTAVYYCSRGVVGALDYWGQGTLVTVSS
VL: DIVMTQSPLSLTVTPGEPASISCRSSQSLLFTNGYNSLDWYLQKPGQSPQFLIYLVSNRASGVPDRFSGSGSGTDFTLKISRVEAEDVGVYYCMQALRTPYTFGQGTKVEIK
notes: mAb; also called MSLNB568.001; MSNB568
With B3, the binding result is reported as “no binding (tested: 100 nM)” in experiment [4]; “no binding (tested: 100 nM)” in experiment [6]; “no binding (tested: 1000 nM)” in experiment [7]; “no binding (tested: 100 nM)” in experiment [8]; “no binding (tested: 1000 nM)” in experiment [14]; “no binding (tested: 1000 nM)” in experiment [11]. Besides, the Kd in experiment [5] is 1.61 nM; in [9], 2.33 nM; in experiment [10] it was 2.64 nM; in experiment [15], 1 to 5 nM; in experiment [16], 1 to 5 nM; in experiment [17], 0.5 nM. Besides, in experiment [13], the IC50 (usually the concentration at which inhibition is half-maximal) was determined as 0.0764 µg/mL. Moreover, the “Maximum Value (arbitrary units)” value in [13] worked out at 1.7e+07 arbitrary units.

B4: CD3W245-HL-ScFv (scFv)
scFv: EVQLVESGGGLVKPGGSLRLSCAASGFTFSRYNMNWVRQAPGKGLEWVSSISTSSNYIYYADSVKGRFTFSRDNAKNSLDLQMSGLRAEDTAIYYCTRGWGPFDYWGQGTLVTVSSGGSEGKSSGSGSESKSTGGSDIQMTQSPSSLSASVGDRVTITCRARQSIGTAIHWYQQKPGKAPKLLIKYASESISGVPSRFSGSGSGTDFTLTISSLQPEDFATYYCQQSGSWPYTFGQGTKLEIK
Take B4: the Kd is no more than 1 nM in the experiment with recombinant CD3 [18] and no less than 0.5 nM in the experiment with recombinant CD3 [19]. In experiment [1], this molecule had an EC50 of 1 to 3 nM.

B5: MNC3B192 (bispecific antibody)
chain 1: QSALTQPASVSGSPGQSITISCTGTSSNIGTYKFVSWYQQHPGKAPKVMIYEVSKRPSGVSNRFSGSKSGNTASLTISGLQAEDEADYYCVSYAGSGTLLFGGGTKLTVLGGSEGKSSGSGSESKSTGGSQVQLQQSGPGLVKPSQTLSLTCAISGDSVFNNNAAWSWIRQSPSRGLEWLGRTYYRSKWLYDYAVSVKSRITINPDTSKNQFSLQLNSVTPEDTAVYYCARGYSSSFDYWGQGTLVTVSS
chain 2: QVQLVESGPGQVKPSQTLSLTCAISGDSVSSNSAAWNWIRQSPSRGLEWLGRTYYRSKWYNDYAVSVKSRITINPDTSKNQFSLQLNSVTPEDTAVYYCARRDYSSGGFDYWGQGTTVTVSS
chain 3: not shown
As for B5, the EC50 (read off the curve) (as a rule, the concentration giving half of the maximal effect) in experiment [20] is roughly 8 nM.

The values are drawn from patent publication US20240166737A1 (Janssen / Centocor, published 2024).
